This assay has as its target GAL4(1-147)-FMR1, FMR1 fused to the DNA binding domain of the yeast transcription factor GAL4 (plasmid … (yeast; human, UniProt P04386). The assay is described as follows: yeast two-hybrid, HIS3 and LacZ reporters in HF7C.

B1: GAL4 activation domain alone (empty vector pGAD424) (other)
chain: ANFNQSGNIADSSLSFTFTNSSNGPNLITTQTNSQALSQPIASSNVHDNFMNNEITASKIDDGNNSKPLSPGWTDQTAYNAFGITTGMFNTTTMDDVYNYLFDDEDTPPNPKKE
Take B1: the binding result is listed as “no binding”.

These data come from patent US5876949, “Antibodies specific for fragile X related proteins and method of using the same” (The Trustees of the University of Pennsylvania, dated 1999).
